# Assay results taken from patent publication US20080108128A1, “Resonance Energy Transfer Assay System for Multi-Component Detection” (priority 2003, published 2008).
# Biological target: T1, CCR2 (Homo sapiens, UniProt P41597)
# T1 construct: expressed in transfected cells; host or cells: Cos-7
# Test: multiplex BRET assay of ligand induced CCR2:beta-arrestin-2 interaction in live Cos-7 cells
# Type: cell-based
# Settings: Cos-7 cells co-expressing Rluc-Barr2, TRHR and CCR2 fusions (EYFP / t-dimer2(12)); MCP1 0.1 μM, 37° C. 10 min; coelenterazine h 5 μM
# Description: A construct for the expression of bovine beta-arrestin-2, N-terminally fused to Rluc (Rluc-Barr2) was constructed by amplification of the bovine beta-arrestin-2 coding sequence by PCR using the Barr2-fw and Barr2-re primers (template: construct containing bovine beta-arrestin2 in pcDNA3 (Invitrogen)). The 5′ and 3′ primers used contained EcoRV and NotI restriction enzyme sites, respectively. A second PCR product, containing the coding sequence for Rluc, was generated by amplifying the Rluc cDNA sequence with the primers Rluc-fw and Rluc-re using the plasmid pRL-CMV (Promega) as a template. This second PCR product contained HindIII and EcoRV restriction site at the 5′ and 3′ ends, respectively. Both PCR products were then cloned together into the HindIII/NotI sites of pcDNA3 (Invitrogen). […]
# Ligands or combinations of ligands were added to the samples to a final concentration of 1 μM for TRH and 0.1 μM for MCP1, the natural ligands for the TRHR and CCR2 receptors, respectively. […] A Varian Eclipse fluorescence spectrometer (Varian) was used to record luminescence spectra in the range between 400-700 nm after coelenterazine h (Molecular Probes) was added to the samples to a final concentration of 5 μM.
# The spectra were further analysed by integrating the peak areas of the EYFP and t-dimer2(12) emission peaks as described in Example 2. […]
# T1 sequence (P41597 1-360 isoform P41597-2): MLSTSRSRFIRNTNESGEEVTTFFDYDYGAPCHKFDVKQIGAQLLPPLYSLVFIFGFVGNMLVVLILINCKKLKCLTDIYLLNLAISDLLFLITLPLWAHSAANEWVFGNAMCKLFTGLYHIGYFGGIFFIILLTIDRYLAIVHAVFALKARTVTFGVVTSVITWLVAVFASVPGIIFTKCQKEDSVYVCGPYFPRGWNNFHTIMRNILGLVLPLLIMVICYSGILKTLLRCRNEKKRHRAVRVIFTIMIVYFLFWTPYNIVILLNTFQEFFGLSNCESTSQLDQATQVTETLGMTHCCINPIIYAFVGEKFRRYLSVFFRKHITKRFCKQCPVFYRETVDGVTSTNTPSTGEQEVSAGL
# T1 sequence (P32120 whole entry partner): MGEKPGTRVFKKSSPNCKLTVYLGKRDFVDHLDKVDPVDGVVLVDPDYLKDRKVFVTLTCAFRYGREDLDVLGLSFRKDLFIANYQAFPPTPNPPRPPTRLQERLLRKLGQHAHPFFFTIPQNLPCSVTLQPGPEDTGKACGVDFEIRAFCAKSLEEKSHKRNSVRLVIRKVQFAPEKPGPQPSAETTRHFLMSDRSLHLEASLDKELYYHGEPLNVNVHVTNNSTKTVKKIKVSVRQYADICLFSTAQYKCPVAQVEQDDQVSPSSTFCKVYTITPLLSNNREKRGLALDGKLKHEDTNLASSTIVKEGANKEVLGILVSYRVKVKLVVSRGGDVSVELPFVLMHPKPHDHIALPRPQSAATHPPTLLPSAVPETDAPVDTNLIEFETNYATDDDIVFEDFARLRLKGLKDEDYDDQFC
substance,measurement,value
MCP1: natural ligand for the CCR2 receptor,ligand induced RET signal of CCR2 with Rluc-beta-arrestin-2,activated this receptor as was observed in an increase of the respective RET signal with beta-arrestin-2
